Measurements from patent US20200024358A1 (published 2020).

Target: T1, extracellular domain of human PD-L1 (Example 8) (human, UniProt Q9NZQ7 19-238)
T1 construct: extracellular domain; also called PD-L1 antigen; immobilized PD-L1
Assay: ELISA on coated extracellular domain of human PD-L1, serial dilutions
Method: Serial dilutions of the antibodies to final concentrations ranging from 0.5 ng/mL to 50 μg/ml were tested by ELISA for binding to the extracellular domain of human PD-L1 coated on a 96 well plate.

T1 sequence (Q9NZQ7 19-238): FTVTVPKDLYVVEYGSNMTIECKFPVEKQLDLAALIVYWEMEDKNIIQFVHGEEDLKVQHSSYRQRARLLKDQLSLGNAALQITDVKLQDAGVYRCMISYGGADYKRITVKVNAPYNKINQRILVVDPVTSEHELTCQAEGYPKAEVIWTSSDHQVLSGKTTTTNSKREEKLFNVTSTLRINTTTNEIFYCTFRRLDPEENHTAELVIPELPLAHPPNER

Binder | binding result
CDR1-010 (other) heavy: QIQLVQSGPELKKPGETVKISCKASGYTFTDYSINWVKRAPGKGLKWMGWINTETREPAYAYDFRGRFAFSLETSASTAYLQINNLKYEDTATYFCALDYSYAMDYWGQGTSVTVSSASTKGPSVFPLAPSSKSTSGGTAALGCLVKDYFPEPVTVSWNSGALTSGVHTFPAVLQSSGLYSLSSVVTVPSSSLGTQTYICNVNHKPSNTKVDKRVEPKSCGGGGSEIVMTQSPSTLSASVGDRVIITCQASEAIYSLLAWYQQKPGKAPKLLIYDASDLASGVPSRFSGSGSGAEFTLTISSLQPDDSATYYCQGNYGSSSSSSYGAVFGQGTKLTVLGGGGGSGGGGSGGGGSGGGGSEVQLVESGGGSVQPGGSLRLSCTVSGIDLSSYTMGWVRQAPGKGLEWVGIISSGGRTYYASWAKGRFTISRDTSKNTVYLQMNSLRAEDTATYYCARGRYTGYPYYFALWGQGTTVTVSS light: DIVLTQSPASLAMSLGKRATISCRASESVSVIGAHLIHWYQQKPGQPPKLLIYLASNLETGVPARFSGSGSGTDFTLTIDPVEEDDVAIYSCLQSRIFPRTFGGGTKLEIKRTVAAPSVFIFPPSDEQLKSGTASVVCLLNNFYPREAKVQWKVDNALQSGNSQESVTEQDSKDSTYSLSSTLTLSKADYEKHKVYACEVTHQGLSSPVTKSFNRGECGGGGSAVVTQEPSLTVSPGGTVTLTCGSSTGAVTTSNYANWVQQKPGKSPRGLIGGTNKRAPGVPARFSGSLLGGKAALTISGAQPEDEADYYCALWYSNHWVFGGGTKLTVLGGGGGSGGGGSGGGGSGGGGSEVQLVESGGGSVQPGGSLRLSCAASGFTFSTYAMNWVRQAPGKGLEWVGRIRSKANNYATYYADSVKGRFTISRDDSKNTLYLQMNSLRAEDTATYYCVRHGNFGDSYVSWFAYWGQGTTVTVSS | binds
CDR1-014 (other) heavy: QIQLVQSGPELKKPGETVKISCKASGYTFTDYSINWVKRAPGKGLKWMGWINTETREPAYAYDFRGRFAFSLETSASTAYLQINNLKYEDTATYFCALDYSYAMDYWGQGTSVTVSSASTKGPSVFPLAPSSKSTSGGTAALGCLVKDYFPEPVTVSWNSGALTSGVHTFPAVLQSSGLYSLSSVVTVPSSSLGTQTYICNVNHKPSNTKVDKRVEPKSCGGGGSEIVMTQSPSTLSASVGDRVIITCQASEDIYSLLAWYQQKPGKAPKLLIYDASDLASGVPSRFSGSGSGAEFTLTISSLQPDDSATYYCQGNYGSSSSSSYGAVFGQGTKLTVLGGGGGSGGGGSGGGGSGGGGSEVQLVESGGGSVQPGGSLRLSCTVSGIDLSSYAMGWVRQAPGKGLEWVGIISSGGRTYYASWAKGRFTISRDTSKNTVYLQMNSLRAEDTATYYCARGRYTGYPYYFALWGQGTTVTVSS light: DIVLTQSPASLAMSLGKRATISCRASESVSVIGAHLIHWYQQKPGQPPKLLIYLASNLETGVPARFSGSGSGTDFTLTIDPVEEDDVAIYSCLQSRIFPRTFGGGTKLEIKRTVAAPSVFIFPPSDEQLKSGTASVVCLLNNFYPREAKVQWKVDNALQSGNSQESVTEQDSKDSTYSLSSTLTLSKADYEKHKVYACEVTHQGLSSPVTKSFNRGECGGGGSAVVTQEPSLTVSPGGTVTLTCGSSTGAVTTSNYANWVQQKPGKSPRGLIGGTNKRAPGVPARFSGSLLGGKAALTISGAQPEDEADYYCALWYSNHWVFGGGTKLTVLGGGGGSGGGGSGGGGSGGGGSEVQLVESGGGSVQPGGSLRLSCAASGFTFSTYAMNWVRQAPGKGLEWVGRIRSKANNYATYYADSVKGRFTISRDDSKNTLYLQMNSLRAEDTATYYCVRHGNFGDSYVSWFAYWGQGTTVTVSS | binds
CDR1-016 (other) heavy: QIQLVQSGPELKKPGETVKISCKASGYTFTDYSINWVKRAPGKGLKWMGWINTETREPAYAYDFRGRFAFSLETSASTAYLQINNLKYEDTATYFCALDYSYAMDYWGQGTSVTVSSASTKGPSVFPLAPSSKSTSGGTAALGCLVKDYFPEPVTVSWNSGALTSGVHTFPAVLQSSGLYSLSSVVTVPSSSLGTQTYICNVNHKPSNTKVDKRVEPKSCGGGGSEIVMTQSPSTLSASVGDRVIITCQASEDIYSLLAWYQQKPGKAPKLLIYDASDLASGVPSRFSGSGSGAEFTLTISSLQPDDSATYYCQGNYGSSSSSSYGAVFGQGTKLTVLGGGGGSGGGGSGGGGSGGGGSEVQLVESGGGSVQPGGSLRLSCTVSGIDLSSYTMGWVRQAPGKGLEWVGIISSGGATYYASWAKGRFTISRDTSKNTVYLQMNSLRAEDTATYYCARGRYTGYPYYFALWGQGTTVTVSS light: DIVLTQSPASLAMSLGKRATISCRASESVSVIGAHLIHWYQQKPGQPPKLLIYLASNLETGVPARFSGSGSGTDFTLTIDPVEEDDVAIYSCLQSRIFPRTFGGGTKLEIKRTVAAPSVFIFPPSDEQLKSGTASVVCLLNNFYPREAKVQWKVDNALQSGNSQESVTEQDSKDSTYSLSSTLTLSKADYEKHKVYACEVTHQGLSSPVTKSFNRGECGGGGSAVVTQEPSLTVSPGGTVTLTCGSSTGAVTTSNYANWVQQKPGKSPRGLIGGTNKRAPGVPARFSGSLLGGKAALTISGAQPEDEADYYCALWYSNHWVFGGGTKLTVLGGGGGSGGGGSGGGGSGGGGSEVQLVESGGGSVQPGGSLRLSCAASGFTFSTYAMNWVRQAPGKGLEWVGRIRSKANNYATYYADSVKGRFTISRDDSKNTLYLQMNSLRAEDTATYYCVRHGNFGDSYVSWFAYWGQGTTVTVSS | binds
CDR1-013 (other) heavy: QIQLVQSGPELKKPGETVKISCKASGYTFTDYSINWVKRAPGKGLKWMGWINTETREPAYAYDFRGRFAFSLETSASTAYLQINNLKYEDTATYFCALDYSYAMDYWGQGTSVTVSSASTKGPSVFPLAPSSKSTSGGTAALGCLVKDYFPEPVTVSWNSGALTSGVHTFPAVLQSSGLYSLSSVVTVPSSSLGTQTYICNVNHKPSNTKVDKRVEPKSCGGGGSEIVMTQSPSTLSASVGDRVIITCQASEDIYSLLAWYQQKPGKAPKLLIYDASDLASGVPSRFSGSGSGAEFTLTISSLQPDDSATYYCQGAYGSSSSSSYGAVFGQGTKLTVLGGGGGSGGGGSGGGGSGGGGSEVQLVESGGGSVQPGGSLRLSCTVSGIDLSSYTMGWVRQAPGKGLEWVGIISSGGRTYYASWAKGRFTISRDTSKNTVYLQMNSLRAEDTATYYCARGRYTGYPYYFALWGQGTTVTVSS light: DIVLTQSPASLAMSLGKRATISCRASESVSVIGAHLIHWYQQKPGQPPKLLIYLASNLETGVPARFSGSGSGTDFTLTIDPVEEDDVAIYSCLQSRIFPRTFGGGTKLEIKRTVAAPSVFIFPPSDEQLKSGTASVVCLLNNFYPREAKVQWKVDNALQSGNSQESVTEQDSKDSTYSLSSTLTLSKADYEKHKVYACEVTHQGLSSPVTKSFNRGECGGGGSAVVTQEPSLTVSPGGTVTLTCGSSTGAVTTSNYANWVQQKPGKSPRGLIGGTNKRAPGVPARFSGSLLGGKAALTISGAQPEDEADYYCALWYSNHWVFGGGTKLTVLGGGGGSGGGGSGGGGSGGGGSEVQLVESGGGSVQPGGSLRLSCAASGFTFSTYAMNWVRQAPGKGLEWVGRIRSKANNYATYYADSVKGRFTISRDDSKNTLYLQMNSLRAEDTATYYCVRHGNFGDSYVSWFAYWGQGTTVTVSS | binds
CDR1-012 (other) heavy: QIQLVQSGPELKKPGETVKISCKASGYTFTDYSINWVKRAPGKGLKWMGWINTETREPAYAYDFRGRFAFSLETSASTAYLQINNLKYEDTATYFCALDYSYAMDYWGQGTSVTVSSASTKGPSVFPLAPSSKSTSGGTAALGCLVKDYFPEPVTVSWNSGALTSGVHTFPAVLQSSGLYSLSSVVTVPSSSLGTQTYICNVNHKPSNTKVDKRVEPKSCGGGGSEIVMTQSPSTLSASVGDRVIITCQASEDIYSLLAWYQQKPGKAPKLLIYAASDLASGVPSRFSGSGSGAEFTLTISSLQPDDSATYYCQGNYGSSSSSSYGAVFGQGTKLTVLGGGGGSGGGGSGGGGSGGGGSEVQLVESGGGSVQPGGSLRLSCTVSGIDLSSYTMGWVRQAPGKGLEWVGIISSGGRTYYASWAKGRFTISRDTSKNTVYLQMNSLRAEDTATYYCARGRYTGYPYYFALWGQGTTVTVSS light: DIVLTQSPASLAMSLGKRATISCRASESVSVIGAHLIHWYQQKPGQPPKLLIYLASNLETGVPARFSGSGSGTDFTLTIDPVEEDDVAIYSCLQSRIFPRTFGGGTKLEIKRTVAAPSVFIFPPSDEQLKSGTASVVCLLNNFYPREAKVQWKVDNALQSGNSQESVTEQDSKDSTYSLSSTLTLSKADYEKHKVYACEVTHQGLSSPVTKSFNRGECGGGGSAVVTQEPSLTVSPGGTVTLTCGSSTGAVTTSNYANWVQQKPGKSPRGLIGGTNKRAPGVPARFSGSLLGGKAALTISGAQPEDEADYYCALWYSNHWVFGGGTKLTVLGGGGGSGGGGSGGGGSGGGGSEVQLVESGGGSVQPGGSLRLSCAASGFTFSTYAMNWVRQAPGKGLEWVGRIRSKANNYATYYADSVKGRFTISRDDSKNTLYLQMNSLRAEDTATYYCVRHGNFGDSYVSWFAYWGQGTTVTVSS | binds
CDR1-015 (other) heavy: QIQLVQSGPELKKPGETVKISCKASGYTFTDYSINWVKRAPGKGLKWMGWINTETREPAYAYDFRGRFAFSLETSASTAYLQINNLKYEDTATYFCALDYSYAMDYWGQGTSVTVSSASTKGPSVFPLAPSSKSTSGGTAALGCLVKDYFPEPVTVSWNSGALTSGVHTFPAVLQSSGLYSLSSVVTVPSSSLGTQTYICNVNHKPSNTKVDKRVEPKSCGGGGSEIVMTQSPSTLSASVGDRVIITCQASEDIYSLLAWYQQKPGKAPKLLIYDASDLASGVPSRFSGSGSGAEFTLTISSLQPDDSATYYCQGNYGSSSSSSYGAVFGQGTKLTVLGGGGGSGGGGSGGGGSGGGGSEVQLVESGGGSVQPGGSLRLSCTVSGIDLSSYTMGWVRQAPGKGLEWVGIISSAGRTYYASWAKGRFTISRDTSKNTVYLQMNSLRAEDTATYYCARGRYTGYPYYFALWGQGTTVTVSS light: DIVLTQSPASLAMSLGKRATISCRASESVSVIGAHLIHWYQQKPGQPPKLLIYLASNLETGVPARFSGSGSGTDFTLTIDPVEEDDVAIYSCLQSRIFPRTFGGGTKLEIKRTVAAPSVFIFPPSDEQLKSGTASVVCLLNNFYPREAKVQWKVDNALQSGNSQESVTEQDSKDSTYSLSSTLTLSKADYEKHKVYACEVTHQGLSSPVTKSFNRGECGGGGSAVVTQEPSLTVSPGGTVTLTCGSSTGAVTTSNYANWVQQKPGKSPRGLIGGTNKRAPGVPARFSGSLLGGKAALTISGAQPEDEADYYCALWYSNHWVFGGGTKLTVLGGGGGSGGGGSGGGGSGGGGSEVQLVESGGGSVQPGGSLRLSCAASGFTFSTYAMNWVRQAPGKGLEWVGRIRSKANNYATYYADSVKGRFTISRDDSKNTLYLQMNSLRAEDTATYYCVRHGNFGDSYVSWFAYWGQGTTVTVSS | binds
